Results taken from patent publication US7247611 (University of Pennsylvania, dated 2007).

Target: T1, single chain urokinase-type plasminogen activator (UniProt P00749 21-431, radiolabeled with 125I (iodobeads) in the binding assays)
T1 construct: scuPA alone, without peptide; also called scuPA; recombinant scuPA
Assay: 125I-scuPA on LM-TK- cells with peptide (FIG. 1A); indirect read-out of the peptide acting on scuPA
Description: The cells were washed four times with binding buffer, solubilized in 0.1 N NaOH, and the cell extract was assessed for radioactivity. […] Assays were repeated at least three times, and data presented herein represent the mean and standard deviation.

B1: peptide EEIIMR (SEQ ID NO: 5) (peptide)
peptide: EEIIMR
notes: Synthetic variant of EEIIMD with Arg at the carboxyl terminus; also called control peptide EEIIMR
- scuPA-binding-promoting activity relative to peptide EEIIMD: ~20%
